A word on the IC50: it is the concentration that gives 50% inhibition. A higher IC50 goes with weaker potency in that assay.

The record followed here is patent US9115185.

Assay [1] deals with HLA-DR1 (DRB*0101), purified from B-lymphoblastic cell line LG2.1 (human). Description: competition with fluorescent HA308-319 on purified HLA-DR1.
Assay [2] concerns the target HLA-DR2 (DRB1*0201 [sic]), purified from B-lymphoblastic cell line IWB (human). Description: competition with fluorescent HA308-319 on purified HLA-DR2.

For the substance HPV16 E2 peptide 271-300, the values for the IC50 in assay [1] and in assay [2] were 22 µM and 65 µM, respectively.

In turn, HPV16 E2 peptide 286-315 displayed an IC50 in assay [1] of 8 µM.

As for HPV16 E2 peptide 301-330, the concentration for half-maximal inhibition (IC50) in assay [1] stood at 6 µM; in assay [2], 8 µM.

Regarding HPV16 E2 peptide 316-345, the figures for the IC50 in assay [1] and in assay [2] were 6 µM and 55 µM, respectively.

HPV16 E2 peptide 331-365: the IC50 stood at 8 µM in assay [1] and 20 µM in assay [2].
